Test system: MePEG2-IEGR (TFA salt)

Substance | luminescence signal (RLU) from substrate cleavage, 52 nM enzyme | Kcat (Vmax/[FXa]) | luminescence signal (RLU) from substrate cleavage, 80 nM enzyme
thrombin | 52 nM thrombin yielded ˜30.000 RLU |  | 
Factor Xa |  | Kcat=Vmax/[FXa]=1.05×10^14 s^-1 | A concentration of 80 nm FXa yielded a signal of 1.000.000 RLU

Reference: US20210371461
